{"source": "the DeepSol protein solubility set"}
{"assay": "soluble on expression in E. coli; label from the status in PepcDB or PDB records"}
{"sequence": "GSHMNPLTQAVPKCQRWEKLQNSRCVCKMPYECGPSLDVCAQDERSKRILPLTVCKMHVLHCQGRNYTLTGRDSCTLPASAEKACGACPLWGKCDAESSKCVCREASECEEEGFSICVEVNGKEQTMSECEAGALRCRGQSISVTSIRPCAAETQ", "soluble on expression in E. coli": "soluble"}
{"sequence": "MSDWFQLDKEYMMSTYCRTKIAIERGEGCKLYDVDGKEYLDLFSGVGVNVLGYNHPKIVQTTMDQVTKSLHLPFHFLNPVAIEYAKKLVDCSLKNGKVFFTNSGTEATETTLKLIDKYRAITNEEREGIVVLKNSFHGRTLGALHFTRQESVYQNFPTTSIPVYEVERENIEQLEETIINENPIAILLEPVLGSGGIYPLSREYLHGVQNLCDKYNVILIVDEVQSGMGRTGKLFAYQNFNITPHIIQIGKGAGGGIPLGGIIVGEKLCDVFAPGDHGTTFAHSSMGTALGLTVLNTLLDDGLMQEAYEMSLYLNDKLQEIQKENSYYIEEVRHAGMMFGISLNDTNENVKKLQVELMEKGILVDVTQGNIIRLLPPYIITKEEIDTFITQFIFCIDKVAAVVSA", "soluble on expression in E. coli": "not soluble"}
{"sequence": "MEAASIAVPGAGASLRAQALDALMTPAWADKLAAVAAIDAGAPVGAQQDLAEPAGLPGRPPAPQLVPPSQVRQRSVQSPEGRAALLHALAHIEFNAINLALDAVWRYGGLPDAYYLDWLKVAREEAYHFDLLNRHLSGLGHAYGDFPAHNGLWEMAEKTRADLLARLALVPRTLEARGLDASPLIRDKLAAAGDADGAAILEIILRDEIGHVAIGNHWYKALCAQRGLDPVAQYAQLASRYGAPRLRGPFNLEARRAAGFDEDELRALLQAKLAAALEHHHHHH", "soluble on expression in E. coli": "soluble"}
{"sequence": "GPGSMPSKEASSRNLPISGRDTNGKTYRSTDEMWKAELTGDLYDPEKGWYGKALEYWRTVPATVSGVLGGMDHVHDVDIEGSRNFIASLPGHGTSRALDCGAGIGRITKNLLTKLYATTDLLEPVKHMLEEAKRELAGMPVGKFILASMETATLPPNTYDLIVIQWTAIYLTDADFVKFFKHCQQALTPNGYIFFKENCSTGDRFLVDKEDSSLTRSDIHYKRLFNESGVRVVKEAFQEEWPTDLFPLKMYALK", "soluble on expression in E. coli": "soluble"}
{"sequence": "MRILKIYENKGVYKVVIGEPFPPIEFPLEQKISSNKSLSELGLTIVQQGNKVIVEKSLDLKEHIIGLGEKAFELDRKRKRYVMYNVDAGAYKKYQDPLYVSIPLFISVKDGVATGYFFNSASKVIFDVGLEEYDKVIVTIPEDSVEFYVIEGPRIEDVLEKYTELTGKPFLPPMWAFGYMISRYSYYPQDKVVELVDIMQKEGFRVAGVFLDIHYMDSYKLFTWHPYRFPEPKKLIDELHKRNVKLITIVDHGIRVDQNYSPFLSGMGKFCEIESGELFVGKMWPGTTVYPDFFREDTREWWAGLISEWLSQGVDGIWLDMNEPTDFSRAIEIRDVLSSLPVQFRDDRLVTTFPDNVVHYLRGKRVKHEKVRNAYPLYEAMATFKGFRTSHRNEIFILSRAGYAGIQRYAFIWTGDNTPSWDDLKLQLQLVLGLSISGVPFVGCDIGGFQGRNFAEIDNSMDLLVKYYALALFFPFYRSHKATDGIDTEPVFLPDYYKEKVKEIVELRYKFLPYIYSLALEASEKGHPVIRPLFYEFQDDDDMYRIEDEYMVGKYLLYAPIVSKEESRLVTLPRGKWYNYWNGEIINGKSVVKSTHELPIYLREGSIIPLEGDELIVYGETSFKRYDNAEITSSSNEIKFSREIYVSKLTITSEKPVSKIIVDDSKEIQVEKTMQNTYVAKINQKIRGKINLE", "soluble on expression in E. coli": "soluble"}
{"sequence": "MFEFKHIKAFDRAFADNPGPMVVFATPGMLHAGQSLQIFRKWAGNEKNMVIMPGYCVQGTVGHKILSGQRKLEMEGRQVLEVKMQVEYMSFSAHADAKGIMQLVGQAEPESVLLVHGEAKKMEFLKQKIEQELRVNCYMPANGETVTLPTSPSIPVGISLGLLKREMAQGLLPEAKKPRLLHGTLIMKDSNFRLVSSEQALKELGLAEHQLRFTCRVHLHDTRKEQETALRVYSHLKSVLKDHCVQHLPDGSVTVESVLLQAAAPSEDPGTKVLLVSWTYQDEELGSFLTSLLKKGLPQAPS", "soluble on expression in E. coli": "soluble"}
{"sequence": "MNKLHKGWFTEFSPDDLEKMNGASDEEPTKVLKSDGQEMGGAWPGQAFSLQVKKVLFHEKSKYQDVLVFESTTYGNVLVLDGIVQATERDEFSYQEMLAHLPMFAHPDPKRVLIIGGGDGGILREVLKHESVEKVTMCEIDEMVIDVAKKFLPGMSCGFSHPKLDLFCGDGFEFLKNHKNEFDVIITDSSDPVGPAESLFGQSYYELLRDALKEDGILSSQGESVWLHLPLIAHLVAFNRKIFPAVTYAQSIVSTYPSGSMGYLICAKNANRDVTTPARTLTAEQIKALNLRFYNSEVHKAAFVLPQFVKNALE", "soluble on expression in E. coli": "soluble"}
{"sequence": "SLEKKDTNSLKLLLIGNTGIGEYKSRAERKGLWYKLKRFLWTNEFDQTVSALAKWHAEEKADAVLGLGDFLGIPGPLSARDERFTKRWYDIFVKDAKLDIPWLMTLGEEEALVNPSASVRHHYTGEHPNWYMPNDAYTATFSFSTSMTMANGTIQHEAFNATVINVNTWNLFVGNPIANNMQSMMDRLMWLSDQLYTAVNQTTNWLIIMGHLPLVSTGPQGEQGRLQYVDDLYKNGQPRGPEAVLIQMLLSHYQVDLYVSAHDHFMEYVALEDLSKNTTTAFITSGAAVRLLDKDVGRGWIGRLRGALYPILCWSGRRILYAFHPG", "soluble on expression in E. coli": "soluble"}
{"sequence": "KKLKKIVNSYINLGFEVTTKRETIQIDDLVPTQATVYEDELYGRAYELKRGLAEPIIVIKTNNNEKYILVDGHHRAVAACLSDIKELEAHVLEIDTDKKMGIEKTAEKQGLKSLSDIKILDEDKMNCSSAYKLKANILEM", "soluble on expression in E. coli": "not soluble"}
{"sequence": "MTLMGFRVKKVRNHVLWDKENDDRNAFTVIIGNNGCGKTELLIDTCNKYHSYYTSALLDKDTHVASAVHYLREDFSPHNWKTVEREYGHRLPRKLIAASTSQFEKFKANWSVRNDLVPSGFYAYIGSKPYMPSLSPSTRIASKAIQQLLGAEYFEERKHKALVGFLSKFDFGQKLLLKFELTFPNEDLENIQNQSLTEPETQLILKNAYIEHDEMELVELLGYCERIIEAPAFALTVGNQNLNLIHLKGSEQKPFSKLIISRMLRAGLITLSSIQTMKDKSLINDQSTVNIESSAISSLSKRSSGEQ", "soluble on expression in E. coli": "not soluble"}
{"sequence": "MPGAMESPNESEDVSKTFFKLCDGLRLGELVTTEHFRLSDVMSAIELGEPKMDVGVGSKHIKTLKEAISGGLYADDYPFQLAIMDSTLAMVVAWLEGSALGSTVWTNVLLSNVTFVKHPVFHPFASGVNLFIRNAHALINSVGNLEELPEDFNPQMLFSHQRWAPRRVVVQLMREQVTLLGTTGRKWRESAFSKQAYDICCAVASRLEMFIMLLEIIGLLVAPEIEDPNFDHKVHLGDFYVHEKEYEGAEENSDEKSEESTSDPTPSSEAKSETTEKKEQKSNDEATDETDQNDDENVGDDEDEDDMKQFKPNFGFASILAERLCKVTKAYAETVKLGRRAPDNIDGDGDYLWLGAYEPKTCIRMIPACFPRKIKVPSRQEAADWWVKCAERIYHLCIVTPKTSKDLNYLFYFARTFGQNACVFTRSLLQICMFPVDNHLCGDENRSIADAVEYSLSNCFCPQILDRVSPVYKDQTAQSLYVLFLNHMSKLAITVYGSFGCNLSRQRDRLEMAIEDLGQIHSYAGRLEERTDEVLLSGKMVTAKEQNYSYHSVATFVFHNLLAIINHYFELGFRMDLYVPYEFPYIYWFIGSVQAHWMRTTLERSQEIQLNVYQANPLRETKNKKLWEERCKLGEELKRRVAAHQFSVLNQIAISMISDGVVRLTVVLIRKGIIKMPKGGDDAEKLRFERRFEPFDSLGPPVRVDYERFKSDSGIDQMYEDKIETLIDQAQKSFNEAREHLEKIDNSVEQNREMMQLIHVAKSNIIACRVLKLDLTDRNVVWSFSEEIPMFPCLKISKK", "soluble on expression in E. coli": "not soluble"}
{"sequence": "MMLSTEGREGFVVKVRGLPWSCSADEVMRFFSDCKIQNGTSGIRFIYTREGRPSGEAFVELESEEEVKLALKKDRETMGHRYVEVFKSNSVEMDWVLKHTGPNSPDTANDGFVRLRGLPFGCSKEEIVQFFSGLEIVPNGMTLPVDFQGRSTGEAFVQFASQEIAEKALKKHKERIGHRYIEIFKSSRAEVRTHYDPPRKLMAMQRPGPYDRPGAGRGYNSIGRGAGFERMRRGAYGGGYGGYDDYGGYNDGYGFGSDRFGRDLNYCFSGMSDHRYGDGGSSFQSTTGHCVHMRGLPYRATENDIYNFFSPLNPMRVHIEIGPDGRVTGEADVEFATHEDAVAAMAKDKANMQHRYVELFLNSTAGTSGGAYDHSYVELFLNSTAGASGGAYGSQMMGGMGLSNQSSYGGPASQQLSGGYGGGYGGQSSMSGYDQVLQENSSDYQSNLA", "soluble on expression in E. coli": "soluble"}
{"sequence": "MYFPAAIDTSLAAEDLGIWAPIDHQRIISLLTIGLGVLYHREKAISLEPLPETMLDEGKASPVPDISLRDNSASQTPIIIEVCHTNGLKGDLRKVIQLIDDGDYGIQEGFIYDYRAGTWVLYRSGGDGLTQSTSFSDILQLDLNQFL", "soluble on expression in E. coli": "not soluble"}
{"sequence": "MAHHHHHHMRSNRNGSHSFFFLSVYSWFIFSPFEVFDDEYFLVDEKEKYVFLFVFVFMEEKRICVVVFPVPKVHAAAEIVIVDAVLFPHAADTDELKLCHF", "soluble on expression in E. coli": "not soluble"}
{"sequence": "MSLKISKLKKNVVLKNGTIIDPFNNYEKKGDIHIENGKIKAVGKIPTPKSSEIIDCKNLNITHGFFDLHVHFREPGGEDKEDLNSGSLAALAGGFTGVCTMPNTNPPIDSPESIRYIIDRSEECPIYIYPIGSITKSQEGKELTEMGAMLSQGAVAFSDDGLPISDAGVMYNALDYSSMFDVPIINHAEDECLKQDSVMHEGEVSTHLGLPGSPDITESNMVFRDLELSIRAGARIHIPHVSSEKSVNHIKTMKKKSDRITAEVSPHHIFFCDEDLYSFDTNLKVAPPIRTKNDRKALIDALKNGIIDCIATDHAPHTIEEKEGTFDIAPFGMIGLESCFGAVNKVLTKDKKISHLELIKLLTVNPRKIMKLNQDLFKEGTNAEIAIYDPNIEWKFSLENIYSKSNNSPLFKEGHHHHHH", "soluble on expression in E. coli": "not soluble"}
{"sequence": "MYSERPPLDPHPLSPYMAWTGYRNRDAILDVLKGVFPRDKSDVLEFAAGSGMHAHYFAQHFAHLTFHPSDSDEDLLPHIEERTRQSGLSNVARPRRLDLTQPETWPAGEKFHAIYCINVCQVAPVSIVGGIMACSSRILADGGFLFIYGPFLDYGRFASDFDEEFDRLLRSTGEEGWSLKDIAELDRAAGRHGMRLDDEIDMPSNDFALIYRRA", "soluble on expression in E. coli": "not soluble"}
{"sequence": "RFTPRWIVRFLVENSLGRLWAEMHPDSRLKDSLSYLVPIENSQAHPLKLVRDITFLDPSCGSMHFGLVAFDLFAEMYREEFEKAGQPGWPENPSVNAEDEIASSIIAHNLHGIDIDLRSVQISALTLLLRARTLSPKCAFTDRNLACANVEQTSGGKLETLIAAAKFSHPIYERVLRTLAAEMKDSDQLGSLLRLERSLERLVIEERRKAEENKQFLLSFPGISPEQFDTQAGIEEFFDLLSDQLLRHLDFFVRASREMGGDPGHIVNEAAKGLRYMQLVSHHYDVVATNPPYMSRRNMSDVIAKHLDKHYPETKGDLYAAFIARCLELVAPQGKVAMVTQQSFMFIGTYEKFRSNLLSRVTVETMAHLGPKAFPNITGEKVNTTAFVIRREPDG", "soluble on expression in E. coli": "not soluble"}
{"sequence": "MIRSIFIPPTSITATSRLFYGMRAYSTKLEKASLQKYLHDPVKVTVIPITDKESFIYYKHTDNLFNSQSRILKAEKWIVEKSAKLWRKLKKSPKSYNKKIVSMVQSLLNSTPWSENSLLTIPSESYILKRIKGEKDKTQEIRLTLKDYTVKAEQVDTQPLHVYYPPGISSPDECLRQMKKLYQEGLIYHKKWTLYCLLGLPLTIPLILIPLIPNVPGFYLSYRAYVNIKAYLGAKHLKSLLESSKQNLEFRELLGYTEVYKRGTSSRTQGNQKESKGAPELLLNKKTLPLILDFLEVHELESDLNKVILQESKSQEKNKI", "soluble on expression in E. coli": "not soluble"}
{"sequence": "MSLTADPPACTVPAAGVSSTHKLVNGGAEKIVFKIKSSNNNEYRIAPVFGFVDPSGSKDVVITRTAGAPKEDKLVVHFASAPADATDAQAAFVAVAPAGTVTIPMSATA", "soluble on expression in E. coli": "soluble"}
